Assay results taken from patent publication US20260242735A1 (UNIVERSIT T BASEL, published 2026).

B1: Refmab #6 (antibody, V domains shown)
VH: QVQLQQPGAEVVKPGASVKMSCKASGYTFTSYYIHWIKQTPGQGLEWVGVIYPGNDDISYNQKFQGKATLTADKSSTTAYMQLSSLTSEDSAVYYCAREVRLRYFDVWGQGTTVTVSS
VL: EIVLTQSPGSLAVSPGERVTMSCKSSQSVFFSSSQKNYLAWYQQIPGQSPRLLIYWASTRESGVPDRFTGSGSGTDFTLTISSVQPEDLAIYYCHQYLSSRTFGQGTKLEIK
notes: Full-length format is human IgG1 Fc silent (PG-LALA); also made as Fab; The alanine scan used IgG or Fab
B2: Refmab #6 (antibody, V domains shown)
VH: B1 VH
VL: B1 VL
notes: The alanine scan used IgG or Fab
B3: Refmab #5 (antibody, V domains shown)
VH: QVQLVQSGAEVKKPGASVKVSCKASGYTFTNYDINWVRQAPGQGLEWIGWIYPGDGSTKYNEKFKAKATLTADTSTSTAYMELRSLRSDDTAVYYCASGYEDAMDYWGQGTTVTVSS
VL: DIQMTQSPSSLSASVGDRVTINCKASQDINSYLSWFQQKPGKAPKTLIYRANRLVDGVPSRFSGSGSGQDYTLTISSLQPEDFATYYCLQYDEFPLTFGGGTKVEIK
notes: as for B1
B4: Refmab #5 (antibody, V domains shown)
VH: B3 VH
VL: B3 VL
notes: as for B2

Assays:
Assay in all cases: alanine scan, flow cytometry, HEK293-T;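 further: antibody binding to each alanine-substituted CD33 mutant expressed transiently in HEK293-T, read as fluorescence minus background, mean of duplicates, relative to wild-type CD33 set as 100%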
[1] = molecular target: human CD33 T75A (human, UniProt P20138 18-364)
[2] = molecular target: human CD33 S115A (human, UniProt P20138 18-364)
[3] = molecular target: human CD33 I66A (human, UniProt P20138 18-364)
[4] = molecular target: human CD33 E85A (human, UniProt P20138 18-364)
[5] = molecular target: human CD33 F90A (human, UniProt P20138 18-364)
[6] = molecular target: human CD33 S71A (human, UniProt P20138 18-364)
[7] = molecular target: human CD33 G58A (human, UniProt P20138 18-364)
[8] = molecular target: human CD33 A65S (human, UniProt P20138 18-364)
[9] = molecular target: human CD33 N53A (human, UniProt P20138 18-364)
[10] = molecular target: human CD33 R109A (human, UniProt P20138 18-364)
[11] = molecular target: human CD33 L78A (human, UniProt P20138 18-364)
[12] = molecular target: human CD33 N100A (human, UniProt P20138 18-364)
[13] = molecular target: T1, human CD33 S124A (human, UniProt P20138 18-364)
T1 construct: alanine scan clone, transfected HEK293-T

[14] = molecular target: T2, human CD33 N160A (human, UniProt P20138 18-364)
T2 construct: alanine scan clone, transfected HEK293-T

[15] = molecular target: T3, human CD33 G123A (human, UniProt P20138 18-364)
T3 construct: alanine scan clone, transfected HEK293-T

[16] = molecular target: T4, human CD33 K130A (human, UniProt P20138 18-364)
T4 construct: alanine scan clone, transfected HEK293-T

[17] = molecular target: T5, human CD33 T185A (human, UniProt P20138 18-364)
T5 construct: alanine scan clone, transfected HEK293-T

[18] = molecular target: T6, human CD33 P189A (human, UniProt P20138 18-364)
T6 construct: alanine scan clone, transfected HEK293-T

[19] = molecular target: T7, human CD33 C163A (human, UniProt P20138 18-364)
T7 construct: alanine scan clone, transfected HEK293-T

[20] = molecular target: T8, human CD33 E170A (human, UniProt P20138 18-364)
T8 construct: alanine scan clone, transfected HEK293-T

[21] = molecular target: T9, human CD33 T173A (human, UniProt P20138 18-364)
T9 construct: alanine scan clone, transfected HEK293-T

[22] = molecular target: T10, human CD33 T152A (human, UniProt P20138 18-364)
T10 construct: alanine scan clone, transfected HEK293-T

[23] = molecular target: T11, human CD33 G156A (human, UniProt P20138 18-364)
T11 construct: alanine scan clone, transfected HEK293-T

[24] = molecular target: T12, human CD33 W179A (human, UniProt P20138 18-364)
T12 construct: alanine scan clone, transfected HEK293-T

[25] = molecular target: T13, human CD33 G188A (human, UniProt P20138 18-364)
T13 construct: alanine scan clone, transfected HEK293-T

[26] = molecular target: T14, human CD33 I176A (human, UniProt P20138 18-364)
T14 construct: alanine scan clone, transfected HEK293-T

[27] = molecular target: T15, human CD33 A183S (human, UniProt P20138 18-364)
T15 construct: alanine scan clone, transfected HEK293-T

[28] = molecular target: T16, human CD33 P145A (human, UniProt P20138 18-364)
T16 construct: alanine scan clone, transfected HEK293-T

[29] = molecular target: T17, human CD33 F177A (human, UniProt P20138 18-364)
T17 construct: alanine scan clone, transfected HEK293-T

[30] = molecular target: T18, human CD33 E121A (human, UniProt P20138 18-364)
T18 construct: alanine scan clone, transfected HEK293-T

[31] = molecular target: T19, human CD33 S166A (human, UniProt P20138 18-364)
T19 construct: alanine scan clone, transfected HEK293-T

[32] = molecular target: T20, human CD33 S194A (human, UniProt P20138 18-364)
T20 construct: alanine scan clone, transfected HEK293-T

[33] = molecular target: T21, human CD33 D140A (human, UniProt P20138 18-364)
T21 construct: alanine scan clone, transfected HEK293-T

[34] = molecular target: T22, human CD33 I149A (human, UniProt P20138 18-364)
T22 construct: alanine scan clone, transfected HEK293-T

[35] = molecular target: T23, human CD33 Q171A (human, UniProt P20138 18-364)
T23 construct: alanine scan clone, transfected HEK293-T

[36] = molecular target: T24, human CD33 L153A (human, UniProt P20138 18-364)
T24 construct: alanine scan clone, transfected HEK293-T
T24 sequence (P20138 18-364 L153A limits assumed): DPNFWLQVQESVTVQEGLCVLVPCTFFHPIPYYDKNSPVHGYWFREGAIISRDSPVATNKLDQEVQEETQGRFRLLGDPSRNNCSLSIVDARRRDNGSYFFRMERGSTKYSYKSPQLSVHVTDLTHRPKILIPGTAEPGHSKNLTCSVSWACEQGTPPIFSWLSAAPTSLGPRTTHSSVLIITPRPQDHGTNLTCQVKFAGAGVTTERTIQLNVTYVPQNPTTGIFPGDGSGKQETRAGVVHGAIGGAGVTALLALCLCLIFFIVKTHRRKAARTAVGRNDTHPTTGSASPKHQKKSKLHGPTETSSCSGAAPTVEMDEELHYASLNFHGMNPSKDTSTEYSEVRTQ

Sequence of human CD33 E85A (P20138 18-364 E85A limits assumed): as the sequence (P20138 18-364 L153A limits assumed) above, with E68A, A136L counted along it
Sequence of human CD33 G58A (P20138 18-364 G58A limits assumed): as the sequence (P20138 18-364 L153A limits assumed) above, with G41A, A136L counted along it
T8 sequence (P20138 18-364 E170A limits assumed): as the sequence (P20138 18-364 L153A limits assumed) above, with A136L, E153A counted along it
Sequence of human CD33 F90A (P20138 18-364 F90A limits assumed): as the sequence (P20138 18-364 L153A limits assumed) above, with F73A, A136L counted along it
T7 sequence (P20138 18-364 C163A limits assumed): as the sequence (P20138 18-364 L153A limits assumed) above, with A136L, C146A counted along it
T3 sequence (P20138 18-364 G123A limits assumed): as the sequence (P20138 18-364 L153A limits assumed) above, with G106A, A136L counted along it
T23 sequence (P20138 18-364 Q171A limits assumed): as the sequence (P20138 18-364 L153A limits assumed) above, with A136L, Q154A counted along it
T17 sequence (P20138 18-364 F177A limits assumed): as the sequence (P20138 18-364 L153A limits assumed) above, with A136L, F160A counted along it
T21 sequence (P20138 18-364 D140A limits assumed): as the sequence (P20138 18-364 L153A limits assumed) above, with D123A, A136L counted along it
T9 sequence (P20138 18-364 T173A limits assumed): as the sequence (P20138 18-364 L153A limits assumed) above, with A136L, T156A counted along it
Sequence of human CD33 T75A (P20138 18-364 T75A limits assumed): as the sequence (P20138 18-364 L153A limits assumed) above, with T58A, A136L counted along it
T15 sequence (P20138 18-364 A183S limits assumed): as the sequence (P20138 18-364 L153A limits assumed) above, with A136L, A166S counted along it
T18 sequence (P20138 18-364 E121A limits assumed): as the sequence (P20138 18-364 L153A limits assumed) above, with E104A, A136L counted along it
Sequence of human CD33 A65S (P20138 18-364 A65S limits assumed): as the sequence (P20138 18-364 L153A limits assumed) above, with A48S, A136L counted along it
T12 sequence (P20138 18-364 W179A limits assumed): as the sequence (P20138 18-364 L153A limits assumed) above, with A136L, W162A counted along it
T5 sequence (P20138 18-364 T185A limits assumed): as the sequence (P20138 18-364 L153A limits assumed) above, with A136L, T168A counted along it
Sequence of human CD33 N53A (P20138 18-364 N53A limits assumed): as the sequence (P20138 18-364 L153A limits assumed) above, with N36A, A136L counted along it
T22 sequence (P20138 18-364 I149A limits assumed): as the sequence (P20138 18-364 L153A limits assumed) above, with I132A, A136L counted along it
Sequence of human CD33 I66A (P20138 18-364 I66A limits assumed): as the sequence (P20138 18-364 L153A limits assumed) above, with I49A, A136L counted along it
T13 sequence (P20138 18-364 G188A limits assumed): as the sequence (P20138 18-364 L153A limits assumed) above, with A136L, G171A counted along it
Sequence of human CD33 N100A (P20138 18-364 N100A limits assumed): as the sequence (P20138 18-364 L153A limits assumed) above, with N83A, A136L counted along it
T4 sequence (P20138 18-364 K130A limits assumed): as the sequence (P20138 18-364 L153A limits assumed) above, with K113A, A136L counted along it
Sequence of human CD33 S71A (P20138 18-364 S71A limits assumed): as the sequence (P20138 18-364 L153A limits assumed) above, with S54A, A136L counted along it
T16 sequence (P20138 18-364 P145A limits assumed): as the sequence (P20138 18-364 L153A limits assumed) above, with P128A, A136L counted along it
T14 sequence (P20138 18-364 I176A limits assumed): as the sequence (P20138 18-364 L153A limits assumed) above, with A136L, I159A counted along it
T6 sequence (P20138 18-364 P189A limits assumed): as the sequence (P20138 18-364 L153A limits assumed) above, with A136L, P172A counted along it
T2 sequence (P20138 18-364 N160A limits assumed): as the sequence (P20138 18-364 L153A limits assumed) above, with A136L, N143A counted along it
T19 sequence (P20138 18-364 S166A limits assumed): as the sequence (P20138 18-364 L153A limits assumed) above, with A136L, S149A counted along it
T11 sequence (P20138 18-364 G156A limits assumed): as the sequence (P20138 18-364 L153A limits assumed) above, with A136L, G139A counted along it
T10 sequence (P20138 18-364 T152A limits assumed): as the sequence (P20138 18-364 L153A limits assumed) above, with T135A, A136L counted along it
T20 sequence (P20138 18-364 S194A limits assumed): as the sequence (P20138 18-364 L153A limits assumed) above, with A136L, S177A counted along it
Sequence of human CD33 S115A (P20138 18-364 S115A limits assumed): as the sequence (P20138 18-364 L153A limits assumed) above, with S98A, A136L counted along it
Sequence of human CD33 L78A (P20138 18-364 L78A limits assumed): as the sequence (P20138 18-364 L153A limits assumed) above, with L61A, A136L counted along it
T1 sequence (P20138 18-364 S124A limits assumed): as the sequence (P20138 18-364 L153A limits assumed) above, with S107A, A136L counted along it
Sequence of human CD33 R109A (P20138 18-364 R109A limits assumed): as the sequence (P20138 18-364 L153A limits assumed) above, with R92A, A136L counted along it

Binder	Mean % WT Binding [1] [% WT binding]	Mean % WT Binding [2] [% WT binding]	Mean % WT Binding [3] [% WT binding]	Mean % WT Binding [4] [% WT binding]	Mean % WT Binding [5] [% WT binding]	Mean % WT Binding [6] [% WT binding]	Mean % WT Binding [7] [% WT binding]	Mean % WT Binding [8] [% WT binding]	Mean % WT Binding [9] [% WT binding]	Mean % WT Binding [10] [% WT binding]	Mean % WT Binding [11] [% WT binding]	Mean % WT Binding [12] [% WT binding]	Mean % WT Binding [13] [% WT binding]	Mean % WT Binding [14] [% WT binding]	Mean % WT Binding [15] [% WT binding]	Mean % WT Binding [16] [% WT binding]	Mean % WT Binding [17] [% WT binding]	Mean % WT Binding [18] [% WT binding]	Mean % WT Binding [19] [% WT binding]	Mean % WT Binding [20] [% WT binding]	further results
B1	102	75.8	93.7	94.4	71.1	99.4	73.9	92.3	96.8	107	110	83.9									
B2													98.2	106	94.1	119	117	103	73.9	89.5	Mean % WT Binding [21]: 98.9 % WT binding; Mean % WT Binding [22]: 92.7 % WT binding; Mean % WT Binding [23]: 88.1 % WT binding; Mean % WT Binding [24]: 96.7 % WT binding; Mean % WT Binding [25]: 100 % WT binding; Mean % WT Binding [26]: 102 % WT binding; Mean % WT Binding [27]: 92.3 % WT binding; Mean % WT Binding [28]: 89.7 % WT binding; Mean % WT Binding [29]: 48.7 % WT binding; Mean % WT Binding [30]: 90.8 % WT binding; Mean % WT Binding [31]: 108 % WT binding; Mean % WT Binding [32]: 92.4 % WT binding; Mean % WT Binding [33]: 104 % WT binding; Mean % WT Binding [34]: 100 % WT binding; Mean % WT Binding [35]: 99.6 % WT binding; Mean % WT Binding [36]: 94.3 % WT binding
B3	120	74.6	105	158	123	150	112	175	97.6	103	99.3	165									
B4													79.4	110	67.5	271	94	115	62	110	Mean % WT Binding [21]: 101 % WT binding; Mean % WT Binding [22]: 137 % WT binding; Mean % WT Binding [23]: 92.3 % WT binding; Mean % WT Binding [24]: 133 % WT binding; Mean % WT Binding [25]: 114 % WT binding; Mean % WT Binding [26]: 97 % WT binding; Mean % WT Binding [27]: 101 % WT binding; Mean % WT Binding [28]: 82.9 % WT binding; Mean % WT Binding [29]: 57.3 % WT binding; Mean % WT Binding [30]: 105 % WT binding; Mean % WT Binding [31]: 114 % WT binding; Mean % WT Binding [32]: 90.4 % WT binding; Mean % WT Binding [33]: 118 % WT binding; Mean % WT Binding [34]: 112 % WT binding; Mean % WT Binding [35]: 105 % WT binding; Mean % WT Binding [36]: 101 % WT binding
